From paper PMC4601012 (Scientific Reports, 2015)

Tests used:
[1] = target: T1, CA/09 H1 HA: hemagglutinin of A/California/7/2009 (H1N1) (Influenza A virus A/California/07/2009 …, UniProt C3W5X2, strain); assay: ELISA; conditions: one partner purified
T1 construct: source: insect cells, expressed and purified (Supplementary Methods)

[2] = target: BS/07 H1 HA: hemagglutinin of A/Brisbane/59/2007(H1N1) (Influenza A virus A/Brisbane/59/2007 …, strain); assay: ELISA
[3] = target: T1, CA/09 H1 HA: hemagglutinin of …; assay: SPR; conditions: both partners purified

B1: H123#437 scFv (scFv, V domains shown)
VH: QVQLVQSGAEVKKPGSSVKVSCTSSEFMFPAFAISWVRQAPGQGLEWLGGISPMFDHPNYAQKFQGRVTITADQSTRTAYMDLRSLRSEDTAVYYCARSPTYLPSGVFDHWGQGTLVTVSS
VL: QPGLTQPPSVSKGLRQTATLTCTGNSNNVGNQGAAWLQQHQGHPPKLLSYRNNDRPSGISERFSASRSGNTASLTITGLQPEDEADYYCSTWDSSLSAVVFGGGTKLTVL
notes: source: E. coli ER2738, phage-free soluble scFv in filtered culture supernatant; not shown: E-tag, C-terminal, kept
normalized binding affinity (relative to F10 scFv) [1]: 5.2

B2: H123#437 IgG (antibody, V domains shown)
VH: QVQLVQSGAEVKKPGSSVKVSCTSSEFMFPAFAISWVRQAPGQGLEWLGGISPMFDHPNYAQKFQGRVTITADQSTRTAYMDLRSLRSEDTAVYYCARSPTYLPSGVFDHWGQGTLVTVSS
VL: QPGLTQPPSVSKGLRQTATLTCTGNSNNVGNQGAAWLQQHQGHPPKLLSYRNNDRPSGISERFSASRSGNTASLTITGLQPEDEADYYCSTWDSSLSAVVFGGGTKLTVL
binding result ([2]; both partners purified): binds | Kd [3]: 0.091 nM | koff [3]: 3.52e-05 s⁻¹ | kon [3]: 386000 M⁻¹ s⁻¹

B3: F10 scFv (scFv, V domains shown)
VH: QVQLVQSGAEVKKPGSSVKVSCTSSEVTFSSFAISWVRQAPGQGLEWLGGISPMFGTPNYAQKFQGRVTITADQSTRTAYMDLRSLRSEDTAVYYCARSPSYICSGGTCVFDHWGQGTLVTVSS
VL: QPGLTQPPSVSKGLRQTATLTCTGNSNNVGNQGAAWLQQHQGHPPKLLSYRNNDRPSGISERFSASRSGNTASLTITGLQPEDEADYYCSTWDSSLSAVVFGGGTKLTVL
notes: not shown: E-tag, C-terminal, kept
binding result ([2]; one partner purified): binds

B4: F10 IgG (antibody, V domains shown)
VH: QVQLVQSGAEVKKPGSSVKVSCTSSEVTFSSFAISWVRQAPGQGLEWLGGISPMFGTPNYAQKFQGRVTITADQSTRTAYMDLRSLRSEDTAVYYCARSPSYICSGGTCVFDHWGQGTLVTVSS
VL: QPGLTQPPSVSKGLRQTATLTCTGNSNNVGNQGAAWLQQHQGHPPKLLSYRNNDRPSGISERFSASRSGNTASLTITGLQPEDEADYYCSTWDSSLSAVVFGGGTKLTVL
binding result ([2]; both partners purified): binds | Kd [3]: 0.046 nM | koff [3]: 1.11e-05 s⁻¹ | kon [3]: 240000 M⁻¹ s⁻¹
